Experiments:
human CD20 on cells [1] = molecular target: T1, human CD20 on cells (human, UniProt P11836 1-297); assay: flow cytometry on Ramos cells, MCF (Mean PE)
T1 construct: whole, on cells; Tumour antigen on the target cells; also called CD20 positive Ramos cells; Ramos cells
T1 sequence (looked up): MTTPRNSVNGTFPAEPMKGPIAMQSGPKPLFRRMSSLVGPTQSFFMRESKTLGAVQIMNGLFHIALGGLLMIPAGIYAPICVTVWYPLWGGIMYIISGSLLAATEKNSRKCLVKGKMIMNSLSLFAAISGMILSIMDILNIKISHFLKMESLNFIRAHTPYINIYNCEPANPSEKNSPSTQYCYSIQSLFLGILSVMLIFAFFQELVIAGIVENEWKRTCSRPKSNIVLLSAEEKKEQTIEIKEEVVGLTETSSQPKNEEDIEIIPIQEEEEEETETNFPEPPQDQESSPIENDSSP

human CD20 on cells [2] = molecular target: T1, human CD20 on cells; assay: flow cytometry on Raji cells, MCF (Mean PE)
[3] = molecular target: T2, soluble recombinant cynomolgus TCR alpha/beta-zipper protein (cynomolgus/rhesus monkey); assay: ELISA, 2 µg/mL coated soluble recombinant cynomolgus TCR α/β-zipper protein, OD 450 nm
T2 construct: Made in house in CHOK1SV cells; extracellular domains fused to a zipper protein; also called cynoTCR-zipper protein; not shown: zipper protein (O'Shea et al. 1993)
T2 V domain 1: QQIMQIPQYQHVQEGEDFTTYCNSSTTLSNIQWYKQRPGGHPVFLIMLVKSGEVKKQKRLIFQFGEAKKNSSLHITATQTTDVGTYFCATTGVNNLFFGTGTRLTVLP
T2 V domain 2: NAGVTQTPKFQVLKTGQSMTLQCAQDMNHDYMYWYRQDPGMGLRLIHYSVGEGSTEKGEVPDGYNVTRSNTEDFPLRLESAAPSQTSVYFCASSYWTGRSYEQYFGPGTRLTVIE
Method: Quality of the TCR α/β zipper proteins was assessed in an ELISA binding assay. Maxisorp 96-well ELISA plates (Nunc) were coated with 2 μg/mL soluble recombinant human TCR α/β (2XN9)-zipper protein or soluble recombinant cynomolgus TCR α/β-zipper protein. After an overnight incubation, plates were washed and blocked with PBS+1% casein for 1 h at room temperature. Next, plates were incubated with serial dilutions of either a functional flag tagged Nanobody or the functional mouse IgG anti-non-human primate/Rat TCRα/β antibody, clone R73 (eBioscience 16-5960) for 1 h at room temperature while shaking, washed again and incubated with mouse anti-flag-HRP (Sigma, #A8592) respectively rabbit anti-mouse-HRP (Dako, # P0260). After 1 h, TMB One Solution (Promega #G7431) was added. The reaction was stopped with 2M H₂SO₄ and the dose dependent binding was determined by measuring the OD at 450 nm using the Tecan sunrise 4 (FIG. 2).

human CD20 on cells [4] = molecular target: T1, human CD20 on cells; assay: cell-based or functional assay
[5] = molecular target: T3, T cell receptor alpha/beta on primary cynomolgus T cells (cynomolgus); assay: cell-based or functional assay
[6] = molecular target: T4, T cell receptor alpha/beta on purified primary human T cells (human, UniProt P01848 1-140; P01850 1-176); assay: flow cytometry, purified primary human T cells
T4 construct: whole, on cells; also called human primary T cells
T4 TCR alpha (looked up): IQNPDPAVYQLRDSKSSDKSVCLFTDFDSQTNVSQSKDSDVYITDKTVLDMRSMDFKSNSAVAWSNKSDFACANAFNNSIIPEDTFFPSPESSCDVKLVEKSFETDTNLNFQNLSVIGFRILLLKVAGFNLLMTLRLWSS
T4 TCR beta (looked up): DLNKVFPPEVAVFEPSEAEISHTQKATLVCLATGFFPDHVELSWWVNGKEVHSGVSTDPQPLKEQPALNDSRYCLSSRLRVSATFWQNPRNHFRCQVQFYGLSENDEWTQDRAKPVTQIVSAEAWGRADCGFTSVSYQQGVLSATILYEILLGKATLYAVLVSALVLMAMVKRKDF

human CD20 on cells [7] = molecular target: T1, human CD20 on cells; assay: flow cytometry, Ramos cells
human CD20 on cells [8] = molecular target: T1, human CD20 on cells; assay: cell-based or functional assay; remark: listed apart in the source
[9] = molecular target: T3, T cell receptor alpha/beta on primary …; assay: cell-based or functional assay; remark: listed apart in the source
[10] = molecular target: T3, T cell receptor alpha/beta on primary …; assay: cell-based or functional assay; remark: listed apart in the source
[11] = molecular target: T3, T cell receptor alpha/beta on primary …; assay: cell-based or functional assay; remark: listed apart in the source
[12] = molecular target: T4, T cell receptor alpha/beta on purified …; assay: flow cytometry, purified primary human T cells; purified primary human T cells

B1: anti-CD20 Nanobody (VHH)
VHH: EVQLVESGGGLVQPGGSLRLSCTFSGGTFSSYTMGWFRQAPGKEREFVAEVRWGGVTTYSNSLKDRFSISEDSVKNAVYLQMNSLKPEDTAVYYCAAVRQMYMTVVPDYWGQGTLVTVSS
EC50 (read off the curve) (human CD20 on cells [1]): ~9 nM
EC50 (read off the curve) (human CD20 on cells [2]): ~20 nM

B2: cAblys (VHH)
VHH: DVQLQASGGGSVQAGGSLRLSCAASGYTIGPYCMGWFRQAPGKEREGVAAINMGGGITYYADSVKGRFTISQDNAKNTVYLLMNSLEPEDTAIYYCAADSTIYASYYECGHGLSTGGYGYDSWGQGTQVTVSS
notes: also called cAblys3; irrelevant anti-egg lysozyme Nanobody
binding result [3]: no binding (tested: 1e-6 M)

B3: T017000076 (bispecific antibody)
chain: EVQLVESGGGLVQPGGSLRLSCTFSGGTFSSYTMGWFRQAPGKEREFVAEVRWGGVTTYSNSLKDRFSISEDSVKNAVYLQMNSLKPEDTAVYYCAAVRQMYMTVVPDYWGQGTLVTVSSGGGGSGGGGSGGGGSGGGGSGGGGSGGGGSGGGGSEVQLVESGGGLVQPGGSLRLSCVASGDVHKINFLGWYRQAPGKEREKVAHISIGDQTDYADSAKGRFTISRDESKNMVYLQMNSLKPEDTAVYFCRAFSRIYPYDYWGQGTLVTVSSGAADYKDHDGDYKDHDIDYKDDDDKGAAHHHHHH
notes: CD20 x TCR bispecific Nanobody construct (cluster A); entry includes the FLAG3-HIS6 tag; also called 20CD019C07-35GS-T0170056G05-FLAG3-HIS6
IC50, xCELLigence human T cell mediated CHO-K1 CD20 killing assay, E:T 30:1, 44 h (human CD20 on cells [4]): 0.36 nM
IC50, cynomolgus T cell dependent B cell (Ramos) killing assay [5]: 0.52 nM
EC50 [6]: 130 nM
EC50 (human CD20 on cells [7]): 1.8 nM
IC50, flow cytometry based human T cell mediated Ramos killing assay, E:T 10:1 (human CD20 on cells [8]): 0.3 nM
IC50, flow cytometry based cynomolgus T cell mediated B cell (Ramos) killing assay [9]: 0.309 nM
IC50, xCELLigence cynomolgus T cell mediated CHO-K1 human CD20 killing assay, E:T 30:1 [10]: 0.67 nM
IC50, xCELLigence cynomolgus T cell mediated CHO-K1 human CD20 killing assay [11]: 0.14 nM

B4: T017000068 (bispecific antibody)
chain: EVQLVESGGGLVQPGGSLRLSCTFSGGTFSSYTMGWFRQAPGKEREFVAEVRWGGVTTYSNSLKDRFSISEDSVKNAVYLQMNSLKPEDTAVYYCAAVRQMYMTVVPDYWGQGTLVTVSSGGGGSGGGGSGGGGSGGGGSGGGGSGGGGSGGGGSEVQLVESGGGLVQPGGSLRLSCITSGETFKINIWGWYRQAPGKQRELVASLTIGGATNYADSVKGRFTISEDSAKNTVYLQMNSLKPEDTAVYFCNAKSRLYPYDYWGQGTLVTVSSGAADYKDHDGDYKDHDIDYKDDDDKGAAHHHHHH
notes: CD20 x TCR bispecific Nanobody construct (cluster B); entry includes the FLAG3-HIS6 tag; also called 20CD019C07-35GS-T0170055C07-FLAG3-HIS6
EC50 [12]: 6.2 nM
IC50, xCELLigence human T cell mediated CHO-K1 CD20 killing assay, E:T 30:1, 44 h (human CD20 on cells [4]): 13 nM
EC50 (human CD20 on cells [7]): 1.8 nM
IC50, flow cytometry based human T cell mediated Ramos killing assay, E:T 10:1 (human CD20 on cells [8]): 1 nM

Reference: patent publication US20190112392A1 (Ablynx, published 2019)
